Assay: soluble fraction after stress (log2 fold change); higher = more stays soluble; pooled small domains, quantitative proteomics
Conditions: stress: pH 4
Outline: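 Aggregation propensity is estimated from the fold change in each domain's soluble amount after acid stress. Pooled small-domain libraries were stressed at pH 4, and higher log2 values mean more stayed soluble.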

**Q.** With “HMIMHLNQIIRNKRLAAGLTQEALAQKVGVTAPAVSKWEKGISYPDITLLPILARNLNTDVNTLLDFSA” as the sequence, how does the “soluble fraction (log2)” value read?
**A.** The value was 0.0644.

**Q.** For “HMSGKWSILILHALEQGPKRFNVLHRELSGITQATLTKQLRQLEEDGIILRKAYPQIPPKVEYQLTEIG”, which “soluble fraction (log2)” value is on record?
**A.** Its value is 0.112.

**Q.** With “HMNAVYAEERRAYILAALEKRGTVHSYELAEQMGVSRETIRRDIMELSNRGLLVKTHGGAIST” as the sequence, how does the “soluble fraction (log2)” value read?
**A.** The value was -0.352.

**Q.** Which “soluble fraction (log2)” value does the source give for “HMRESRLFQILYQLLTKKKVTAANLAKQFEVSVRTIYRDIDALSSSGIPIYASQGKNGGIQLDEDF” here?
**A.** The value was -0.999.

**Q.** With “HMGNQALSSVLSDIAGIGPVKTKELLRVYPDLDSLRQAPVEEVAKVKGIGRQLAQKIHDHFSSR” as the sequence, how does the “soluble fraction (log2)” value read?
**A.** The value was -0.0357.

**Q.** With “HMDMQNIQKGLSAIEPGRTFSREEYYAAIQNGSEMLLKEDALAYSLRKSLSDGDIVRVSWNQYAIP” as the sequence, how does the “soluble fraction (log2)” value read?
**A.** The value was -0.909.

**Q.** For “HMELMKPPGYWQSLENAIYESKKVIKEHGFDTLPSSNKLRELDYHGLSRAISVHHSGFPNFREIMNQELGI”, which “soluble fraction (log2)” value is on record?
**A.** Its value is -0.0528.

**Q.** For “HMAERVWASLLEIKNAVAIEDAKTLEDVDNSEKIAEERIAALNDDAKHPLAIAFIGKLRQDIAEKKIELA”, which “soluble fraction (log2)” value is on record?
**A.** Its value is -1.19.

**Q.** With “HMAVKYTKDDFLYTEKPYEAIYDYKNDPFMHNLKIEQMAQQAAEVGVKTFKGLYKNYVKMREMQRGANV” as the sequence, how does the “soluble fraction (log2)” value read?
**A.** Its value is 0.0966.

**Q.** With “HMNAIYKFVLGMIGKRSGVVTTLPSKKQVEFQANMLAEKFMQNGIDPNALKSPEQVKNVLANIDQ” as the sequence, how does the “soluble fraction (log2)” value read?
**A.** The value was 0.01.

**Q.** Which “soluble fraction (log2)” value does the source give for “HMDEEGDALDREYEDQIRLGDEAFDAEDWTSAQRAYTAALELRPDERYPKNRLRRLASLQEDV” here?
**A.** The value was 0.161.

**Q.** With “HMNDAEEKAEAIEGVKNFMANMEKTDIDFKSKESVLLEQVEEIRKNYPVAQWPVIVKQLYNNIGRL” as the sequence, how does the “soluble fraction (log2)” value read?
**A.** Its value is -0.257.

**Q.** With “HMSVPSLVGKTDSEAQSAIKSAGLKVGTVTYQYSDETEKGYVVSQSPYSGNKVNAGSTVNIVVSKGK” as the sequence, how does the “soluble fraction (log2)” value read?
**A.** Its value is 0.155.

**Q.** With “HMLTGISALKPTEAFPDEIFYEIFEIEDNIERTQYIESLRNTARQLKRVTEFNNLYKSFVLDYAQRQKQ” as the sequence, how does the “soluble fraction (log2)” value read?
**A.** The value was -0.375.

**Q.** With “HMVAPPILNITTHIFAEEADLRMVMINGVTRREGDSLGENHRLLEITERGLILIFHNKQYTLDV” as the sequence, how does the “soluble fraction (log2)” value read?
**A.** The value was -2.1.

**Q.** Which “soluble fraction (log2)” value does the source give for “HMYHIYPVADNDTPKLSADRLEYSLSNALLTNKLLNIDEIKKIYNDVILDKDEDGTLELSFKS” here?
**A.** Its value is 0.167.

**Q.** With “HMALPGESVYVSILQSGSNRDQGVGYLDDGTMVVVDGAIKDIGKSIEVVINKSHQTVAGKMLFAKKVA” as the sequence, how does the “soluble fraction (log2)” value read?
**A.** The value was -0.144.

**Q.** Which “soluble fraction (log2)” value does the source give for “HMSKTQYTFKEVGSQFQLFAPSTKHTIMISADHPKYGWLTNQDQGRVINVYDTGKMTSSQDYYGLYKEVT” here?
**A.** Its value is -0.589.

**Q.** Which “soluble fraction (log2)” value does the source give for “HMRIQTVDYNTFISMVEDGKVDAAEIQQQENRILFSDQDQKVYKTAMVPDDDLTQRLLDAGVSTNG” here?
**A.** The value was -0.837.

**Q.** For “HMETFGLSQRELQILSQLHKGQPLKEFAASLFITESTLKTHLSAIYRKMSVKNRVQAIEKAKQSGL”, which “soluble fraction (log2)” value is on record?
**A.** The value was -0.273.

**Q.** Which “soluble fraction (log2)” value does the source give for “HMGNIIITPNPASDFIKIISNSPIIKFGFYDIYGNTINKKFNDNSINISDLPVGMYLINLNERYFKLLK” here?
**A.** Its value is 0.021.

**Q.** Which “soluble fraction (log2)” value does the source give for “HMNQSKYQTIADELKSKILSGEYPENTTIPPELQLQKDYQVSRHTIRQAIALLANEGFLRKEKGSGTYVDV” here?
**A.** Its value is 0.254.

**Q.** With “HMDLRVKRTNKMIMEAFIHLVEQKGYDNITVQEIADEAMINRATFYAHFKDKQDLYDHIFKQAI” as the sequence, how does the “soluble fraction (log2)” value read?
**A.** Its value is -1.33.

**Q.** Which “soluble fraction (log2)” value does the source give for “HMDTVSYSTLLRDIDAKEIKQLDLVPGRREVRVQYNDGRRVTVPVFANDNQILRAAESSGTPLTVV” here?
**A.** Its value is 0.0175.

**Q.** Which “soluble fraction (log2)” value does the source give for “HMTGWINVDKNWYYMNNSGSMARGMINVNNVSYYLDENGKMLSNTTVNVNGTDYRIDASGAMSQI” here?
**A.** The value was -0.153.

**Q.** For “HMPKIPRLTLTETAGIMGVSQRALALAIQQGMYSWAQALPGRNKKRPIYFINAITFAKAQGIDLEEYK”, which “soluble fraction (log2)” value is on record?
**A.** Its value is -0.529.

**Q.** Which “soluble fraction (log2)” value does the source give for “HMANLLNLREIPVANIRPELTMFLIPGENITQAFQTIRDQVVFTNKRLIVANVQGLTGKKVSYTSYPY” here?
**A.** The value was -0.251.

**Q.** With “HMPAERLSMRKIYEILRLKYGHGLSNREVALSVSVSRSTVADYLLRAQAAGLSWPLPDGLDETGLEQRLFP” as the sequence, how does the “soluble fraction (log2)” value read?
**A.** The value was -0.572.

**Q.** With “HMAVSDPTAGGIKALMYPNPAQDRLSVALDIPAGLDKQAQMTVTDMMGRVVTQQQVTLNDGFQVFEL” as the sequence, how does the “soluble fraction (log2)” value read?
**A.** The value was 0.209.

**Q.** For “HMKQKAEVIFVSKTIMEALSKGVRLTPENLKSETELPIDDFYARLKELIDNGSVVESRENGESYLEAGN”, which “soluble fraction (log2)” value is on record?
**A.** The value was -0.938.

**Q.** With “HMFDPTDLPEKQLMVYEIIKSNNGINMTNIASLLGFNKTTVDNAIRALKKKEIVVFKGTNRSGGYFNT” as the sequence, how does the “soluble fraction (log2)” value read?
**A.** The value was 0.193.

**Q.** For “HMDSAFVSDIRDAFDEAGVDSYRFFGTHSFKRGGVQLYRLLGVSDQEIKERGHWQTFSAYFAYVQA”, which “soluble fraction (log2)” value is on record?
**A.** Its value is -0.303.

**Q.** For “HMVSRKIENPYWANKEKQHIIAEFFYPDTNKRVTASIMNDGSNRDYEEILRGYSIEQIDANTNRRLEER”, which “soluble fraction (log2)” value is on record?
**A.** Its value is -0.811.

**Q.** For “HMDPRTSSLTPQERKVLELVGGGLTNRQIAAEMFLAEKTVKNYVSSLLAKLGFERRTQAAVFIASPAF”, which “soluble fraction (log2)” value is on record?
**A.** The value was -0.0756.

**Q.** Which “soluble fraction (log2)” value does the source give for “HMRARTQYWPFVEEKAAELKLPLHLVNVEPLFGEQKVVVHYTANGRIDFRELVHLLARRFHARIEMR” here?
**A.** Its value is 0.0493.

**Q.** With “HMQGYELKMYVTPDTKYSVAVYDAKNEMVSYTMGFSAKAPFGQEGEVLETVKLEFDKLAVGNYELKYWI” as the sequence, how does the “soluble fraction (log2)” value read?
**A.** Its value is -0.0121.

**Q.** With “HMKFYIHEIIGFNAVDKVAGIVGKVININEDSPQKKLVVNYNGKEVFIPLVDEIVRKIDKQKNEVLITMP” as the sequence, how does the “soluble fraction (log2)” value read?
**A.** Its value is -0.174.

**Q.** Which “soluble fraction (log2)” value does the source give for “HMVGADTISDLISQRGRMIGDKPITNAVIKSGSEFSTINALSKAIASGDARTNDVEGMKPVFR” here?
**A.** Its value is -0.0241.

Source: the domain aggregation screens of Martell et al. (2025)
